Experimental data from paper PMC8102515.
Several values for one entry are separate records, joined by “and”; a condition that tells them apart may be missing. Equal values may be shown once.

T1: human peroxiredoxin 6 (human), P30041
T1 chain: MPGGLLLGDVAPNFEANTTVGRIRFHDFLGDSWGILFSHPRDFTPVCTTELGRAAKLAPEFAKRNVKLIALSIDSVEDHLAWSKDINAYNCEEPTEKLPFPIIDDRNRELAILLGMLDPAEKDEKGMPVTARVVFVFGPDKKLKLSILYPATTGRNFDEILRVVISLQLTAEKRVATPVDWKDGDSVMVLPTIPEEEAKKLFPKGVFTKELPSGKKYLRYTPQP

B1: human peroxiredoxin 6, P30041 1-224 (enzyme)
chain: T1 chain
B2: human peroxiredoxin 6 (protein)
chain: T1 chain

Columns and labels:
[1] = molecular target: T1, human peroxiredoxin 6 (human), P30041; assay: dynamic light scattering; hPrdx6 1.0 mg/ml, pH 8.0; fixed angle of 90°, laser 689 nm; details: remark: other sources report otherwise
[2] = molecular target: T1, human peroxiredoxin 6 (human), P30041; assay: dynamic light scattering; hPrdx6 1.0 mg/ml, pH 3.0; fixed angle of 90°, laser 689 nm; details: remark: other sources report otherwise
[3] = molecular target: T1, human peroxiredoxin 6 (human), P30041; assay: dynamic light scattering; hPrdx6 1.0 mg/ml, pH 6.0; fixed angle of 90°, laser 689 nm; details: remark: other sources report otherwise
[4] = molecular target: T1, human peroxiredoxin 6 (human), P30041; assay: dynamic light scattering; hPrdx6 1.0 mg/ml, pH 9.0; fixed angle of 90°, laser 689 nm; details: remark: other sources report otherwise
[5] = molecular target: T1, human peroxiredoxin 6 (human), P30041; assay: dynamic light scattering; hPrdx6 1.0 mg/ml, pH 10.0; fixed angle of 90°, laser 689 nm; details: remark: other sources report otherwise
[6] = molecular target: T1, human peroxiredoxin 6 (human), P30041; assay: dynamic light scattering; hPrdx6 1.0 mg/ml, pH 2.0; fixed angle of 90°, laser 689 nm; two peaks; details: remark: other sources report otherwise
[7] = molecular target: T1, human peroxiredoxin 6 (human), P30041; assay: dynamic light scattering; hPrdx6 1.0 mg/ml, pH 5.0; fixed angle of 90°, laser 689 nm; two peaks; details: remark: other sources report otherwise
[8] = molecular target: T1, human peroxiredoxin 6 (human), P30041; assay: dynamic light scattering; hPrdx6 1.0 mg/ml, pH 4.0; fixed angle of 90°, laser 689 nm; oligomer told from the hydrodynamic diameter; details: remark: other sources report otherwise
[9] = molecular target: T1, human peroxiredoxin 6 (human), P30041; assay: dynamic light scattering; hPrdx6 1.0 mg/ml, pH 7.0; fixed angle of 90°, laser 689 nm; oligomer told from the hydrodynamic diameter; details: remark: other sources report otherwise
P30041 = assay: dynamic light scattering; hPrdx6 1.0 mg/ml, pH 2.0; fixed angle of 90°, laser 689 nm; two peaks; details: other: dynamic light scattering

| Binder | stoichiometry N [1] | volume fraction of the dimer peak (Hd 6.31 nm) [1] [%] | stoichiometry N [2] | volume fraction of the tetramer peak (Hd 12.2 nm) [2] [%] | stoichiometry N [3] | volume fraction of the dimer peak (Hd 8.12 nm) [3] [%] | stoichiometry N [4] | volume fraction of the dimer peak (Hd 6.4 nm) [4] [%] | stoichiometry N [5] | volume fraction of the dimer peak (Hd 6.3 nm) [5] [%] | stoichiometry N [6] | volume fraction of the larger peak (Hd 14.17 nm; the text's dimer) [6] [%] | stoichiometry N [7] | volume fraction of the dimer peak (Hd 6.39 nm) [7] [%] | volume fraction of the tetramer peak (Hd 13.44 nm) [7] [%] | stoichiometry N [8] | volume fraction of the tetramer peak (Hd 13.75 nm) [8] [%] | stoichiometry N [9] | volume fraction of the dimer peak (Hd 7.1 nm) [9] [%] | volume fraction of the monomer peak (Hd 3.7 nm) (P30041) [%] |
| --- | --- | --- | --- | --- | --- | --- | --- | --- | --- | --- | --- | --- | --- | --- | --- | --- | --- | --- | --- | --- |
| B1 | 2 | 100 | 4 | 99.2 | 2 | 100 | 2 | 100 | 2 | 100 | 2 | 30.2 | 2 and 4 | 29.8 | 70.2 | 4 | 99.6 | 2 | 100 | – |
| B2 | – | – | – | – | – | – | – | – | – | – | – | – | – | – | – | – | – | – | – | 69.8 |
